Experimental findings from patent US20080260755A1 are described below.

In series [1] the target is activated FIX-albumin fusion protein with non-cleavable linker (980/797), activated by FXIa (human) (UniProt P00740). In words: cell-based or functional assay.
In series [2] the target is activated FIX-albumin fusion protein with cleavable linker (1088/797), activated by FXIa (human) (UniProt P00740). In words: cell-based or functional assay.
The test system of series [3] is FIX-albumin fusion protein with non-cleavable linker (1478/797).
The test system of series [4] is FIX-albumin fusion protein with cleavable linker, construct no. 1088/797.
The subject of series [5] is FIX-albumin fusion protein with cleavable linker, construct no. 1089/797.
Series [6] addresses FIX-albumin fusion protein with cleavable linker, construct no. 1089/797. The source holds these as a separate data set.
The target of series [7] is FIX-albumin fusion protein with cleavable linker, construct no. 1088/797. This is another data set of the same source.

Regarding “Antithrombin III (AT) (from UniProt P01008 33-464)”, in series [1], the clotting time (naPTT) after 120 min incubation with AT is 411 s and the clotting time (naPTT), control without incubation with AT came to 196 s. In addition, in series [2], the clotting time (naPTT) after 120 min incubation with AT was found to be 540 s; the clotting time (naPTT), control without incubation with AT is 210 s; the factor of increase in clotting time (naPTT) after 120 min incubation with AT turned out to be 2.57 x.

With Factor XIa (FXIa), the “proteolytic cleavage in vitro, SDS-PAGE” value in series [3] was “The fusion protein with non-cleavable linker did not show a corresponding release of the albumin moiety”; in series [4], “are activated and in parallel the linker is cleaved resulting in release of the albumin moiety”; in series [5], “are activated and in parallel the linker is cleaved resulting in release of the albumin moiety”.

B1: FVIIa (in the presence of tissue factor) (protein)
chain: ANAFLEELRPGSLERECKEEQCSFEEAREIFKDAERTKLFWISYSDGDQCASSPCQNGGSCKDQLQSYICFCLPAFEGRNCETHKDDQLICVNENGGCEQYCSDHTGTKRSCRCHEGYSLLADGVSCTPTVEYPCGKIPILEKRNASKPQGRIVGGKVCPKGECPWQVLLLVNGAQLCGGTLINTIWVVSAAHCFDKIKNWRNLIAVLGEHDLSEHDGDEQSRRVAQVIIPSTYVPGTTNHDIALLRLHQPVVLTDHVVPLCLPERTFSERTLAFVRFSLVSGWGQLLDRGATALELMVLNVPRLMTQDCLQQSRKVGDSPNITEYMFCAGYSDGSKDSCKGDSGGPHATHYRGTWYLTGIVSWGQGCATVGHFGVYTRVSQYIEWLQKLMRSEPRPGVLLRAPFP
Take B1: the “proteolytic cleavage in vitro in the presence of tissue factor (data not shown)” value in series [6] and in series [7] was “also showed release of the albumin moiety in parallel to release of the FIX activation peptide” in each case.
